Four sequences from the supplement of paper PMC5998384 can be followed below.

In data set [1] the test system is HeLa Kyoto. In words: solubility in G1/S (NP-40 vs SDS abundance) (log2 ratio); higher = more soluble. Conditions: cell cycle stage: G1/S.
Data set [2] has as its system HeLa Kyoto. In words: melting temperature (median over replicates), in situ; higher = more thermally stable.
Data set [3] concerns HeLa Kyoto. In words: solubility change mitosis vs G1/S (difference of NP-40 vs SDS log2 ratios) (log2 ratio difference); higher = more soluble in mitosis.
For data set [4], the system named is HeLa Kyoto. In words: thermal stability score vs G1/S (z-score of summed log2 fold changes over temperatures); higher = more thermally stable than in G1/S.
[5] abbreviates: cell cycle stage: early G1 (4.5 h after nocodazole release).
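For melting temperature (median over replicates), in situ in this document: HeLa Kyoto cells synchronized by double thymidine or nocodazole block, proteins quantified by TMT10plex mass spectrometry, three independent biological replicates.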
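For solubility change mitosis vs G1/S (difference of NP-40 vs SDS log2 ratios) in this document: synchronized HeLa Kyoto cells (double thymidine block for G1/S, nocodazole release for mitosis), protein amounts in NP-40 versus SDS lysates quantified by mass spectrometry, three biological replicates.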
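For solubility in G1/S (NP-40 vs SDS abundance) in this document: HeLa Kyoto cells arrested at G1/S by double thymidine block, proteins quantified by TMT10plex mass spectrometry in mild NP-40 versus SDS extracts, three biological replicates.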
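For thermal stability score vs G1/S (z-score of summed log2 fold changes over temperatures) in this document: synchronized HeLa Kyoto cells, proteins quantified by TMT10plex mass spectrometry, three biological replicates, mitosis taken 0.5 h after nocodazole release, G1/S directly after double thymidine block.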

With “MGDERPHYYGKHGTPQKYDPTFKGPIYNRGCTDIICCVFLLLAIVGYVAVGIIAWTHGDPRKVIYPTDSRGEFCGQKGTKNENKPYLFYFNIVKCASPLVLLEFQCPTPQICVEKCPDRYLTYLNARSSRDFEYYKQFCVPGFKNNKGVAEVLQDGDCPAVLIPSKPLARRCFPAIHAYKGVLMVGNETTYEDGHGSRKNITDLVEGAKKANGVLEARQLAMRIFEDYTVSWYWIIIGLVIAMAMSLLFIILLRFLAGIMVWVMIIMVILVLGYGIFHCYMEYSRLRGEAGSDVSLVDLGFQTDFRVYLHLRQTWLAFMIILSILEVIIILLLIFLRKRILIAIALIKEASRAVGYVMCSLLYPLVTFFLLCLCIAYWASTAVFLSTSNEAVYKIFDDSPCPFTAKTCNPETFPSSNESRQCPNARCQFAFYGGESGYHRALLGLQIFNAFMFFWLANFVLALGQVTLAGAFASYYWALRKPDDLPAFPLFSAFGRALRYHTGSLAFGALILAIVQIIRVILEYLDQRLKAAENKFAKCLMTCLKCCFWCLEKFIKFLNRNAYIMIAIYGTNFCTSARNAFFLLMRNIIRVAVLDKVTDFLFLLGKLLIVGSVGILAFFFFTHRIRIVQDTAPPLNYYWVPILTVIVGSYLIAHGFFSVYGMCVDTLFLCFLEDLERNDGSAERPYFMSSTLKKLLNKTNKKAAES [SLC44A2]”, in the data set on HeLa Kyoto [1], the “solubility in G1/S (log2)” value came out at 0.0147. Moreover, the melting temperature came out at 60.2 °C in the data set on HeLa Kyoto [2] (cell cycle stage: G1/S) and 60.1 °C with HeLa Kyoto [2] (cell cycle stage: mitosis). Besides, the “solubility change mitosis (log2)” value with HeLa Kyoto [3] came to 0.0871. Moreover, the thermal stability score with HeLa Kyoto [4] (setting [5]) was -1.29; with HeLa Kyoto [4] (cell cycle stage: mitosis), -2.25.

For the sequence “MGDKIWLPFPVLLLAALPPVLLPGAAGFTPSLDSDFTFTLPAGQKECFYQPMPLKASLEIEYQVLDGAGLDIDFHLASPEGKTLVFEQRKSDGVHTVETEVGDYMFCFDNTFSTISEKVIFFELILDNMGEQAQEQEDWKKYITGTDILDMKLEDILESINSIKSRLSKSGHIQTLLRAFEARDRNIQESNFDRVNFWSMVNLVVMVVVSAIQVYMLKSLFEDKRKSRT [TMED5]”, in the data set with HeLa Kyoto [1], the “solubility in G1/S (log2)” value is 0.107. Besides, the melting temperature in the data set on HeLa Kyoto [2] (cell cycle stage: G1/S) was 54.2 °C; in the data set with HeLa Kyoto [2] (cell cycle stage: mitosis), 55.5 °C. Further, the “solubility change mitosis (log2)” value with HeLa Kyoto [3] was -0.206. In addition, the values for the thermal stability score in the data set with HeLa Kyoto [4] (setting [5]) and with HeLa Kyoto [4] (cell cycle stage: mitosis) were 2.08 and 1.93, respectively.

For the sequence “MGDPAPARSLDDIDLSALRDPAGIFELVEVVGNGTYGQVYKGRHVKTGQLAAIKVMDVTEDEEEEIKQEINMLKKYSHHRNIATYYGAFIKKSPPGNDDQLWLVMEFCGAGSVTDLVKNTKGNALKEDCIAYICREILRGLAHLHAHKVIHRDIKGQNVLLTENAEVKLVDFGVSAQLDRTVGRRNTFIGTPYWMAPEVIACDENPDATYDYRSDIWSLGITAIEMAEGAPPLCDMHPMRALFLIPRNPPPRLKSKKWSKKFIDFIDTCLIKTYLSRPPTEQLLKFPFIRDQPTERQVRIQLKDHIDRSRKKRGEKEETEYEYSGSEEEDDSHGEEGEPSSIMNVPGESTLRREFLRLQQENKSNSEALKQQQQLQQQQQRDPEAHIKHLLHQRQRRIEEQKEERRRVEEQQRREREQRKLQEKEQQRRLEDMQALRREEERRQAEREQEYKRKQLEEQRQSERLQRQLQQEHAYLKSLQQQQQQQQLQKQQQQQLLPGDRKPLYHYGRGMNPADKPAWAREVEERTRMNKQQNSPLAKSKPGSTGPEPPIPQASPGPPGPLSQTPPMQRPVEPQEGPHKSLVAHRVPLKPYAAPVPRSQSLQDQPTRNLAAFPASHDPDPAIPAPTATPSARGAVIRQNSDPTSEGPGPSPNPPAWVRPDNEAPPKVPQRTSSIATALNTSGAGGSRPAQAVRARPRSNSAWQIYLQRRAERGTPKPPGPPAQPPGPPNASSNPDLRRSDPGWERSDSVLPASHGHLPQAGSLERNRVGVSSKPDSSPVLSPGNKAKPDDHRSRPGRPADFVLLKERTLDEAPRPPKKAMDYSSSSEEVESSEDDEEEGEGGPAEGSRDTPGGRSDGDTDSVSTMVVHDVEEITGTQPPYGGGTMVVQRTPEEERNLLHADSNGYTNLPDVVQPSHSPTENSKGQSPPSKDGSGDYQSRGLVKAPGKSSFTMFVDLGIYQPGGSGDSIPITALVGGEGTRLDQLQYDVRKGSVVNVNPTNTRAHSETPEIRKYKKRFNSEILCAALWGVNLLVGTENGLMLLDRSGQGKVYGLIGRRRFQQMDVLEGLNLLITISGKRNKLRVYYLSWLRNKILHNDPEVEKKQGWTTVGDMEGCGHYRVVKYERIKFLVIALKSSVEVYAWAPKPYHKFMAFKSFADLPHRPLLVDLTVEEGQRLKVIYGSSAGFHAVDVDSGNSYDIYIPVHIQSQITPHAIIFLPNTDGMEMLLCYEDEGVYVNTYGRIIKDVVLQWGEMPTSVAYICSNQIMGWGEKAIEIRSVETGHLDGVFMHKRAQRLKFLCERNDKVFFASVRSGGSSQVYFMTLNRNCIMNW [MINK1]”, the “solubility in G1/S (log2)” value in the data set with HeLa Kyoto [1] was -0.0708. Further, the melting temperature in the data set with HeLa Kyoto [2] (cell cycle stage: G1/S) came to 49.8 °C; in the data set on HeLa Kyoto [2] (cell cycle stage: mitosis), 50.7 °C. The “solubility change mitosis (log2)” value in the data set on HeLa Kyoto [3] was determined as 0.157. The thermal stability score worked out at 0.759 in the data set on HeLa Kyoto [4] (setting [5]) and 2.05 with HeLa Kyoto [4] (cell cycle stage: mitosis).

Regarding “MGDSHVDTSSTVSEAVAEEVSLFSMTDMILFSLIVGLLTYWFLFRKKKEEVPEFTKIQTLTSSVRESSFVEKMKKTGRNIIVFYGSQTGTAEEFANRLSKDAHRYGMRGMSADPEEYDLADLSSLPEIDNALVVFCMATYGEGDPTDNAQDFYDWLQETDVDLSGVKFAVFGLGNKTYEHFNAMGKYVDKRLEQLGAQRIFELGLGDDDGNLEEDFITWREQFWPAVCEHFGVEATGEESSIRQYELVVHTDIDAAKVYMGEMGRLKSYENQKPPFDAKNPFLAAVTTNRKLNQGTERHLMHLELDISDSKIRYESGDHVAVYPANDSALVNQLGKILGADLDVVMSLNNLDEESNKKHPFPCPTSYRTALTYYLDITNPPRTNVLYELAQYASEPSEQELLRKMASSSGEGKELYLSWVVEARRHILAILQDCPSLRPPIDHLCELLPRLQARYYSIASSSKVHPNSVHICAVVVEYETKAGRINKGVATNWLRAKEPAGENGGRALVPMFVRKSQFRLPFKATTPVIMVGPGTGVAPFIGFIQERAWLRQQGKEVGETLLYYGCRRSDEDYLYREELAQFHRDGALTQLNVAFSREQSHKVYVQHLLKQDREHLWKLIEGGAHIYVCGDARNMARDVQNTFYDIVAELGAMEHAQAVDYIKKLMTKGRYSLDVWS [POR]”, the “solubility in G1/S (log2)” value in the data set with HeLa Kyoto [1] was 0.0892. The results for the melting temperature with HeLa Kyoto [2] (cell cycle stage: G1/S) and in the data set with HeLa Kyoto [2] (cell cycle stage: mitosis) were 51.6 °C and 51.1 °C, respectively. Moreover, in the data set on HeLa Kyoto [3], the “solubility change mitosis (log2)” value was -0.125. The thermal stability score in the data set on HeLa Kyoto [4] (setting [5]) turned out to be 4.17; in the data set on HeLa Kyoto [4] (cell cycle stage: mitosis), 5.83.
